Our source for the Kd values is article PMC12051234, “NrdR in Streptococcus and Listeria spp.: DNA Helix Phase Dependence of the Bacterial Ribonucleotide Reductase Repressor”.

As a reminder, the Kd is the concentration at which binding is half-saturated.

Holding throughout (assay): MST; dATP + ATP; MST, temperature not stated. Lmo: 25 mM Bis-Tris propane pH 6.5, 100 mM KCl, 5 mM MgCl2, 5% glycerol, 1 mM DTT, 0.05% Tween 20, one nucleotide 1 mM or two at 0.5 mM each; Spn: 25 mM HEPES pH 7.2, 250 mM NaCl, 2.5 mM MgCl2, 15% glycerol, 2 mM DTT, 0.1 mg/mL BSA, 0.05% Tween 20, 0.5 mM ATP and/or dATP; Eco: 25 mM Tris pH 8.5, 100 mM NaCl, 7 mM MgCl2, 1 mM DTT, 0.025% Tween 20, 1 mM ATP + 1 mM dATP; …

In one data set the target is T1, ScoNrdR (Streptomyces coelicolor, UniProt O69980 1-182).
T1 sequence: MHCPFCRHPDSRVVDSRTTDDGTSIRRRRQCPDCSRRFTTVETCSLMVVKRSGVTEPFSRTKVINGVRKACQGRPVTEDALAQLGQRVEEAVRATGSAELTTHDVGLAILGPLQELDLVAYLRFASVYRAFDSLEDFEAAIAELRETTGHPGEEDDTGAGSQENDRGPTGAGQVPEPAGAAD
The following applies: protein: recombinant; chain copies: 4; label: 5'-Cy5 sense; blunt.

The next data set deals with T2, SpnNrdR (Streptococcus pneumoniae TIGR4, UniProt P67318 1-157).
T2 sequence: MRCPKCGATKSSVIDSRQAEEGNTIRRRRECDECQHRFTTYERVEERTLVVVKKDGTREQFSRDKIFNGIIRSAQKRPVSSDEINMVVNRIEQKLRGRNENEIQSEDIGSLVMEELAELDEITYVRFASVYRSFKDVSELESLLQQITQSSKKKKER
The following applies: protein: recombinant; tags: C-terminal His6; chain copies: 4; label: 5'-Cy5 sense; blunt.

The next data set has as its target T3, LmoNrdR (Listeria monocytogenes serotype 1/2a …, UniProt Q8Y6W9 1-154).
T3 sequence: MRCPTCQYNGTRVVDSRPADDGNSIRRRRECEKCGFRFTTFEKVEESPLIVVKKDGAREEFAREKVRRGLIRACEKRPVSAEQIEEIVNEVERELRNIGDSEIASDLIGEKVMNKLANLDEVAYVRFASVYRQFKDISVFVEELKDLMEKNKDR
Particulars: protein: recombinant; tags: C-terminal His6; chain copies: 4; label: 5'-Cy5 sense; blunt.

Another data set deals with T4, EcoNrdR (Escherichia coli, UniProt P0A8D0 1-149).
T4 sequence: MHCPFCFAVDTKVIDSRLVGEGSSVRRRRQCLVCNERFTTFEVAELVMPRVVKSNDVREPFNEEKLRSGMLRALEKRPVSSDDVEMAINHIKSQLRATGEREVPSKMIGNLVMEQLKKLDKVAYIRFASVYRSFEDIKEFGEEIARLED
Particulars: protein: recombinant; chain copies: 4; label: 5'-Cy5 sense; blunt.

B1: Synt 14 bp spacer (dsDNA)
DNA 1: GCCAAACACAACATCTAGTGGTTGGATAGCTGAGCACACAACATCTAGTGGACCTC
DNA 2: GAGGTCCACTAGATGTTGTGTGCTCAGCTATCCAACCACTAGATGTTGTGTTTGGC
In the case of B1, the Kd with ScoNrdR came to 154 ± 28 nM; in the data set with SpnNrdR it was 699 ± 109 nM; with LmoNrdR, 2 ± 0.5 nM; with EcoNrdR it was 169 ± 27 nM.

B2: Sth nrdHEF (16 bp spacer) (dsDNA)
DNA 1: TCAAAACACAAGATATAGGGTTGTGTTTCAATACTAAACACAAAATATTGTATTCCTT
DNA 2: AAGGAATACAATATTTTGTGTTTAGTATTGAAACACAACCCTATATCTTGTGTTTTGA
In the case of B2, the Kd in the data set with SpnNrdR amounted to 800 ± 250 nM.

B3: Synt 12 bp spacer (dsDNA)
DNA 1: GCCAAACACAACATCTAGTGGTTGGATAGGAGCACACAACATCTAGTGGACCTC
DNA 2: GAGGTCCACTAGATGTTGTGTGCTCCTATCCAACCACTAGATGTTGTGTTTGGC
In the case of B3, the Kd is 580 ± 79 nM with ScoNrdR, 5060 ± 511 nM in the data set with SpnNrdR, 37 ± 6 nM in the data set with LmoNrdR and 1380 ± 309 nM in the data set with EcoNrdR.

B4: Synt 20 bp spacer (dsDNA)
DNA 1: GCCAAACACAACATCTAGTGGTTGGATAGCGTGACAGTAGCACACAACATCTAGTGGACCTC
DNA 2: GAGGTCCACTAGATGTTGTGTGCTACTGTCACGCTATCCAACCACTAGATGTTGTGTTTGGC
Consider B4, for which the Kd in the data set with ScoNrdR was 2190 ± 449 nM; with SpnNrdR, 12300 ± 388 nM; in the data set with LmoNrdR, 122 ± 10 nM; with EcoNrdR, 3320 ± 540 nM.

B5: Synt 24 bp spacer (dsDNA)
DNA 1: GCCAAACACAACATCTAGTGGTTGGATAGCGTGAATTCACCTAGCACACAACATCTAGTGGACCTC
DNA 2: GAGGTCCACTAGATGTTGTGTGCTAGGTGAATTCACGCTATCCAACCACTAGATGTTGTGTTTGGC
Regarding B5, the Kd with ScoNrdR was 763 ± 104 nM; in the data set with SpnNrdR it was 9200 ± 374 nM; with LmoNrdR, 26 ± 3 nM; with EcoNrdR, 141 ± 34 nM.

B6: Eco nrdHIEF box 1 duplicated (dsDNA)
DNA 1: GTCTCTTGCTATATATTGTGTGGTTGAATCTTTTTTTTGCTATATATTGTGTCTCTG
DNA 2: CAGAGACACAATATATAGCAAAAAAAAGATTCAACCACACAATATATAGCAAGAGAC
On to B6, for which the Kd with EcoNrdR came to 213 ± 40 nM.

B7: Synt 26 bp spacer (dsDNA)
DNA 1: GCCAAACACAACATCTAGTGGTTGGATAGCGTGAAGTTCCACCTAGCACACAACATCTAGTGGACCTC
DNA 2: GAGGTCCACTAGATGTTGTGTGCTAGGTGGAACTTCACGCTATCCAACCACTAGATGTTGTGTTTGGC
For the molecule B7, the Kd with ScoNrdR amounted to 4400 ± 355 nM; in the data set with SpnNrdR, 2910 ± 225 nM; with EcoNrdR, 24 ± 7 nM.

B8: Eco nrdHIEF box 2 duplicated (dsDNA)
DNA 1: GTCTCCAACTACATCTAGTATGGTTGAATCTTTTTTCAACTACATCTAGTATCTCTG
DNA 2: CAGAGATACTAGATGTAGTTGAAAAAAGATTCAACCATACTAGATGTAGTTGGAGAC
On to B8, for which, in the data set with EcoNrdR, the Kd stood at 99 ± 33 nM.

B9: Synt 15 bp spacer (dsDNA)
DNA 1: GCCAAACACAACATCTAGTGGTTGGATAGCGTGAGCACACAACATCTAGTGGACCTC
DNA 2: GAGGTCCACTAGATGTTGTGTGCTCACGCTATCCAACCACTAGATGTTGTGTTTGGC
As to B9, the Kd amounted to 45 ± 13 nM in the data set with ScoNrdR, 55 ± 14 nM in the data set with SpnNrdR and 1 ± 0.2 nM in the data set with LmoNrdR.

B10: Synt 16 bp spacer (dsDNA)
DNA 1: GCCAAACACAACATCTAGTGGTTGGATAGCGTGAAGCACACAACATCTAGTGGACCTC
DNA 2: GAGGTCCACTAGATGTTGTGTGCTTCACGCTATCCAACCACTAGATGTTGTGTTTGGC
In the case of B10, the Kd in the data set with ScoNrdR stood at 28 ± 7 nM; with SpnNrdR, 41 ± 11 nM; in the data set with LmoNrdR, 1 ± 0.4 nM; in the data set with EcoNrdR, 82 ± 22 nM.

B11: Synt 13 bp spacer (dsDNA)
DNA 1: GCCAAACACAACATCTAGTGGTTGGATAGTGAGCACACAACATCTAGTGGACCTC
DNA 2: GAGGTCCACTAGATGTTGTGTGCTCACTATCCAACCACTAGATGTTGTGTTTGGC
B11: the Kd with ScoNrdR turned out to be 158 ± 19 nM; with SpnNrdR, 3940 ± 290 nM; in the data set with LmoNrdR, 11 ± 1.8 nM; in the data set with EcoNrdR it was 117 ± 24 nM.

B12: Synt 25 bp spacer (dsDNA)
DNA 1: GCCAAACACAACATCTAGTGGTTGGATAGCGTGAAGTTCACCTAGCACACAACATCTAGTGGACCTC
DNA 2: GAGGTCCACTAGATGTTGTGTGCTAGGTGAACTTCACGCTATCCAACCACTAGATGTTGTGTTTGGC
Turning to B12, the Kd with ScoNrdR came out at 4050 ± 272 nM; in the data set with SpnNrdR, 4370 ± 343 nM; in the data set with LmoNrdR it was 25 ± 12 nM; with EcoNrdR, 326 ± 44 nM.

B13: Sth nrdDG (16 bp spacer) (dsDNA)
DNA 1: TCGAAAATCAATATATAGTGGTTGAGATAAAAATATACCACAATATATTGATTTTCCT
DNA 2: AGGAAAATCAATATATTGTGGTATATTTTTATCTCAACCACTATATATTGATTTTCGA
As to B13, the Kd with SpnNrdR came to 1150 ± 320 nM.

B14: Synt 19 bp spacer (dsDNA)
DNA 1: GCCAAACACAACATCTAGTGGTTGGATAGCGTGAAGTAGCACACAACATCTAGTGGACCTC
DNA 2: GAGGTCCACTAGATGTTGTGTGCTACTTCACGCTATCCAACCACTAGATGTTGTGTTTGGC
With B14, the Kd was 1660 ± 221 nM with ScoNrdR, 11600 ± 340 nM with SpnNrdR, 51 ± 7 nM with LmoNrdR and 601 ± 113 nM in the data set with EcoNrdR.

B15: Synt 17 bp spacer (dsDNA)
DNA 1: GCCAAACACAACATCTAGTGGTTGGATAGCGTGAAGGCACACAACATCTAGTGGACCTC
DNA 2: GAGGTCCACTAGATGTTGTGTGCCTTCACGCTATCCAACCACTAGATGTTGTGTTTGGC
As for B15, the Kd with ScoNrdR came to 21 ± 7 nM; with SpnNrdR it was 340 ± 83 nM; in the data set with LmoNrdR, 1 ± 0.4 nM; in the data set with EcoNrdR, 45 ± 6 nM.

B16: Synt 18 bp spacer (dsDNA)
DNA 1: GCCAAACACAACATCTAGTGGTTGGATAGCGTGAAGTGCACACAACATCTAGTGGACCTC
DNA 2: GAGGTCCACTAGATGTTGTGTGCACTTCACGCTATCCAACCACTAGATGTTGTGTTTGGC
As for B16, the Kd is 476 ± 80 nM with ScoNrdR, 6600 ± 536 nM with SpnNrdR, 3 ± 0.6 nM with LmoNrdR and 66 ± 12 nM with EcoNrdR.
